In assay [1] the target is single-chain gp120BaL-sCD4 complex (full-length single-chain) (HIV-1 isolate BaL | not stated). The assay can be described thus: ITC; iTC200, 25°C, A32 IgG with FLSC or ID2; heats of dilution subtracted.
The target in assay [2] is ID2 (inner domain of gp120 stabilized by the C65-C115 disulfide, isolate 93TH057), from 293 cells (HIV-1 clade A/E isolate 93TH057). The description is as above.
Assay [3] concerns the target single-chain gp120BaL-sCD4 complex (full-length single-chain) (HIV-1 isolate BaL | not stated). Nature of the assay: SPR; Biacore T-100, 25°C, 1:1 Langmuir model.
The target of assay [4] is monomeric full-length BaL gp120 (HIV-1 isolate BaL). Nature of the assay: SPR; Biacore T-100, 25°C, 1:1 Langmuir model. (SPR reads the build-up and loss of mass on a sensor chip optically.)
Assay [5] concerns the target ID1 (independent inner domain of gp120, first design, isolate 93TH057) (HIV-1 clade A/E isolate 93TH057). The assay can be described thus: SPR; Biacore T-100, 25°C, 1:1 Langmuir model.
Assay [6] concerns the target ID2, stabilized inner domain of HIV-1 gp120 of clade A/E isolate 93TH057 (HIV-1 clade A/E isolate 93TH057). Nature of the assay: SPR; antibody immobilised, ID2 passed over at 0-200 nM; Biacore T-100, 25°C; 1:1 Langmuir model, BIAevaluation software; two experiments.

The term Kd denotes a measure of binding affinity in units of concentration. What is called koff is a measure of how fast the partners let go of each other. Low values mean a long-lived complex, high ones a short-lived complex. For orientation: kon means the second-order rate constant of association. Read a low kon as slow association. Consider mAb A32 (antibody), for which the Kd was 11.5 nM in assay [1]; 9 nM in assay [2]; 0.23 nM in assay [3]; 3.2 nM in assay [4]; 9.3 nM in assay [5]; 0.17 nM in assay [6]. Besides, the dH in assay [1] was -3.15 kcal/mol; in assay [2] it was -2.55 kcal/mol. In addition, the off-rate constant (koff) was 0.000102 s⁻¹ in assay [3], 0.000437 s⁻¹ in assay [4], 0.000785 s⁻¹ in assay [5] and 0.000275 s⁻¹ in assay [6]. The on-rate (kon) in assay [3] was 443000 M⁻¹ s⁻¹; in assay [4] it was 139000 M⁻¹ s⁻¹; in assay [5], 85000 M⁻¹ s⁻¹; in assay [6], 1.65e+06 M⁻¹ s⁻¹.

The values above are taken from paper PMC4856543.
